{"source": "paper PMC10141624", "target": "HA-T-AGM protein (recombinant soluble trimeric hemagglutinin of Influenza A/Guangdong-Maonan/SWL1536/2019 (H1N1) pdm09-like virus) (Influenza A/Guangdong-Maonan/SWL1536/2019 (H1N1) | not stated)", "test": "SEC"}
{"substance": "HA-T-AGM protein (recombinant soluble trimeric hemagglutinin of Influenza A/Guangdong-Maonan/SWL1536/2019 (H1N1) pdm09-like virus)", "values": [{"measurement": "stoichiometry N", "result": 3}]}
